Reference: paper PMC6751169, “Modular enzyme assembly for enhanced cascade biocatalysis and metabolic flux” (Nature Communications, 2019)

Target: the molecule itself
Assay: not stated; oligomeric state of the untagged enzymes; the sentence points to Supplementary Figs. 1 and 2

B1: MenD (2-succinyl-5-enolpyruvyl-6-hydroxy-3-cyclohexadiene-1-carboxylate synthase), untagged (enzyme, E. coli, UniProt P17109 1-556, looked up)
chain: MSVSAFNRRWAAVILEALTRHGVRHICIAPGSRSTPLTLAAAENSAFIHHTHFDERGLGHLALGLAKVSKQPVAVIVTSGTAVANLYPALIEAGLTGEKLILLTADRPPELIDCGANQAIRQPGMFASHPTHSISLPRPTQDIPARWLVSTIDHALGTLHAGGVHINCPFAEPLYGEMDDTGLSWQQRLGDWWQDDKPWLREAPRLESEKQRDWFFWRQKRGVVVAGRMSAEEGKKVALWAQTLGWPLIGDVLSQTGQPLPCADLWLGNAKATSELQQAQIVVQLGSSLTGKRLLQWQASCEPEEYWIVDDIEGRLDPAHHRGRRLIANIADWLELHPAEKRQPWCVEIPRLAEQAMQAVIARRDAFGEAQLAHRICDYLPEQGQLFVGNSLVVRLIDALSQLPAGYPVYSNRGASGIDGLLSTAAGVQRASGKPTLAIVGDLSALYDLNALALLRQVSAPLVLIVVNNNGGQIFSLLPTPQSERERFYLMPQNVHFEHAAAMFELKYHRPQNWQELETAFADAWRTPTTTVIEMVVNDTDGAQTLQQLLAQVSHL
notes: MenD, 2-succinyl-5-enolpyruvyl-6-hydroxy-3-cyclohexadiene-1-carboxylate synthase, E. coli; subunit 63 kDa; 'Untagged' means without RIAD or RIDD; also called untagged MenD; non-tagged enzyme
For B1, the “stoichiometry N” value was 4.
